What all share (test): ELISA
What all share (details): one partner purified

In assay [1] the target is IBV-NP (nucleoprotein of influenza B virus B/Yamagata/16/1988) (Influenza B virus B/Yamagata/16/1988, UniProt Q82662, strain).
Assay [2] addresses H1N1-NP (nucleoprotein of A/Guangzhou/01/2009 (H1N1)) (Influenza A virus A/Guangzhou/01/2009 …, UniProt C3W5S2, strain).
For assay [3], the target named is H9N2-NP fragment 1 to 1167 bp (N389 amino acids) (Influenza A virus …, UniProt W5RGA6).
The target in assay [4] is H9N2-NP fragment 1 to 1308 bp (N436 amino acids) (Influenza A virus …, UniProt W5RGA6).
For assay [5], the target named is H9N2-NP fragment 1 to 1182 bp (N394 amino acids) (Influenza A virus …, UniProt W5RGA6).
Assay [6] addresses H9N2-NP fragment 1 to 1215 bp (N405 amino acids) (Influenza A virus …, UniProt W5RGA6).

B1: H9N2-NP-Nb16-HRP (VHH)
VHH: ESGGGSVQAGGSLRLSCAASGYTYSAYCMGWFRQAPGKEREEVASIDSDFGTNYADSVKGRFTISKDNPKNTLYLQMNNLKAEDTAMYYCAALKYSSSLCLDALPSRANYWGQGTQVTVSS
Take B1: the results for the binding result in assay [1] and in assay [2] were “no binding” and “binds”, respectively.

B2: H9N2-NP-Nb42-HRP (VHH)
VHH: ESGGESVQAGGSLRLSCATSGFTYNRSYCMAWFRQVLGKEREGVAVIDRVGGSTYYADSVKGRFTVSQDNAKTTLYLQMNSLTPEDTAMYYCAAVSTLMTTCQGLLAGHSQRYAYWGQGTQVTVSS
For B2, the binding result was “no binding” in assay [1] and “binds” in assay [2].

B3: H9N2-NP-Nb5-HRP (VHH)
VHH: ESGGGLVQPGGSLRLSCAASGFPFSDYDMNWARQAPGKELEDVSAISSGGTYTYYADSVKGRFTISRDNAKNTLYLQLNSLQTEDTAMYYCGRGWTSGYKSRGQGTQVTVSS
Take B3: the binding result in assay [3] is “binds”; in assay [4], “binds”; in assay [1] it was “no binding”; in assay [5], “binds”; in assay [6], “binds”; in assay [2] it was “binds”.

B4: H9N2-NP-Nb53-HRP (VHH)
VHH: ESGGGSVQAGGSLRLSCAASGYTFSNVYMGWFRQAPGKEREGVAAIDRDGRTTYGDSVKGRFTISQDNAKNILYLQMSSLKPEDTATYYCAADPGYVELISEPLAGIWYRYWGQGTQVTVSS
For the molecule B4, the values for the binding result in assay [1] and in assay [2] were “no binding” and “binds”, respectively.

B5: H9N2-NP-Nb18-HRP (VHH)
VHH: ESGGGSVQAGGSLRLSCAASHTYGTYAMAWFRQAPGEEREGVAAIDSDGETIYADSVKGRFTISRDNAKNILYLQMNSLKPEDTAMYYCAEDLRGVWYGRLELRPGRFTYWGQGTQVTVSS
As to B5, the binding result is recorded as “no binding” in assay [1] and “binds” in assay [2].
